Assay results taken from paper PMC9443353.

Experiments:
ZIKV NS1 [1] = target: T1, ZIKV NS1 (Zika virus, UniProt A0A024B7W1 795-1146); experiment: ELONA; protein on Cu2+-coated plate; Hill slope fit; ELONA: borate buffer (60 mM in selection), 37 °C, 30 min, pH not stated; specificity: selection buffer, filtration, qPCR; FET: human serum as gate electrolyte; conditions: chain copies: 2; label: digoxigenin
ZIKV NS1 [2] = target: T1, ZIKV NS1; experiment: graphene FET; human serum; Hill n = 0.8 ± 0.2; sequential NS1 addition; ELONA: borate buffer (60 mM in selection), 37 °C, 30 min, pH not stated; specificity: selection buffer, filtration, qPCR; FET: human serum as gate electrolyte; conditions: chain copies: 2
DENV3 NS1 = DENV3 NS1 (Dengue virus serotype 3, UniProt Q6YMS4 774-1125); experiment: filter binding with qPCR; 100 nM aptamer, 40 pmol protein; ELONA: borate buffer (60 mM in selection), 37 °C, 30 min, pH not stated; specificity: selection buffer, filtration, qPCR; FET: human serum as gate electrolyte
DENV1 NS1 = DENV1 NS1 (Dengue virus serotype 1, UniProt P17763 776-1127); experiment: as above; conditions: chain copies: 2
YFV NS1 = YFV NS1 (Yellow fever virus, UniProt P03314 779-1130)

B1: ZIKV60 (digoxigenin-labeled) (ssDNA)
DNA: CTTCTGCCCGCCTCCTTCCGGGCCCCGGGGGGTGTCCAGGCCCATGCGTCGTCCGCGGGGAGACGAGATAGGCGGACACT
Kd (ZIKV NS1 [1]): 2.28 ± 0.28 nM

B2: ZIKV60 (pyrene-modified) (ssDNA)
DNA: B1 DNA
modifications: pyrene
apparent K (half saturation) (ZIKV NS1 [2]): 1.4 ± 0.3 pg/mL

B3: ZIKV60 (ssDNA)
DNA: B1 DNA
binding signal (DENV3 NS1): 13.4 ratio ZIKV NS1/DENV3 NS1 bound | binding signal (DENV1 NS1): 14.2 ratio ZIKV NS1/DENV1 NS1 bound | binding signal (YFV NS1): 14.2 ratio ZIKV NS1/YFV NS1 bound
